According to patent US20240018252A1 (Pfizer, published 2024):

How the values were obtained:
human CD3 (huCD3ed) [1] = target: T1, human CD3 (huCD3ed) (human, UniProt P07766 23-126; P04234 22-105); experiment: Biacore SPR, antibody as ligand, hCD3ed 80 nM-0.64 nM, kinetic fit
T1 construct: Soluble analyte in SPR; The delta chain is inferred from the label 'ed'; also called hCD3ed; hCD3

human CD3 (huCD3ed) [2] = target: T1, human CD3 (huCD3ed); experiment: SPR (ProteOn XPR36), IgG amine-coupled on chip, huCD3ed as analyte, 37 C
Experimental: (§1) All experiments were performed on a Bio-Rad Proteon XPR36 surface Plasmon resonance biosensor (Bio-Rad, Hercules, CA). […] The analysis temperature for the immobilization was 25° C. and the running buffer was HBS-T+(10 mM HEPES, 150 mM NaCl, 0.05% Tween-20, pH 7.4). Channels were activated in the analyte (horizontal) direction by injecting a mixture of 1 mM ECD and 0.25 mM NHS for 3 minutes at a flow rate of 30 μL/min. IgGs were immobilized on the activated spots by injecting them in the ligand (vertical) direction at […] in 10 mM Acetate pH 4.5 buffer for 1.5 minutes at 30 μg/mL. The activated surfaces were blocked by injecting 1M ethanolamine, pH 8.5 in the analyte direction for 3 minutes at 30 μL/min.
(§2) The analysis temperature for the hCD3 binding analysis was 37° C. or 25° C. in a running buffer of HBS-T+, supplemented with 1 mg/mL BSA. A kinetic titration method was employed for the interaction analysis as described in Abdiche, et al. The hCD3 (human CD3) analyte was injected in the analyte direction using a series of injections from low to high concentration. The concentrations used were 0.08 nM, 0.4 nM, 2 nM, 10 nM and 50 nM (a 5-membered series, with a 5-fold dilution factor and top concentration of 50 nM). The association time for a given analyte dilution was two minutes. Immediately after the 50 nM hCD3 injection, dissociation was monitored for 2 hours.
(§3) The sensorgrams were double-referenced and fit to a 1:1 Langmuir with mass transport kinetic titration model in BIAevaluation Software version 4.1.1 (GE Lifesciences, Piscataway, NJ).

human CD3 (huCD3ed) [3] = target: T1, human CD3 (huCD3ed); experiment: SPR (ProteOn XPR36), IgG on chip, huCD3ed analyte, 37 C; column head says nM but kd/ka gives this number in M
Experimental: as §1, §2, §3

cynomolgus CD3 (cyCD3ed) = target: T2, cynomolgus CD3 (cyCD3ed) (cynomolgus, UniProt Q95LI5 22-117; Q95LI8 22-105); experiment: SPR (ProteOn XPR36), IgG amine-coupled on chip, cyCD3ed as analyte, 25 C
T2 construct: Named only by the column head 'cyCD3ed'

human CD3 (huCD3ed) [4] = target: T1, human CD3 (huCD3ed); experiment: SPR (ProteOn XPR36), IgG amine-coupled on chip, huCD3ed as analyte, 25 C
Experimental: as §1, §2, §3

human BCMA = target: T3, human BCMA (human, UniProt Q02223 1-54); experiment: SPR, IgG immobilized, human BCMA analyte, 37 C
T3 construct: soluble analyte in SPR; also called hBCMA; huBCMA
T3 sequence: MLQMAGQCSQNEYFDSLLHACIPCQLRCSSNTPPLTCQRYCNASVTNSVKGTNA
Experimental: as §1, with “at […]. The activated” for “at 30 μg/mL. The activated”, “at […].” for “at 30 μL/min.”
as §2, with “hBCMA” for “hCD3”, “BCMA)” for “CD3)”
as §3

T1 sequence (P07766 23-126, chain 1 of 2): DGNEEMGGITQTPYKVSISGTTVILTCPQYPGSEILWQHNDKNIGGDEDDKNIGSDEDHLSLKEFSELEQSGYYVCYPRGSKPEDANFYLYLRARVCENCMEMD
T1 sequence (P04234 22-105, chain 2 of 2): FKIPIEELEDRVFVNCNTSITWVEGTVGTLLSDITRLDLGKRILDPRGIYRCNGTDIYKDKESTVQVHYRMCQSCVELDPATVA
T2 sequence (Q95LI5 22-117, chain 1 of 2): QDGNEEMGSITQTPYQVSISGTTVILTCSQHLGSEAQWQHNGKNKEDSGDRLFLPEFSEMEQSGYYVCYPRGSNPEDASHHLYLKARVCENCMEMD
T2 sequence (Q95LI8 22-105, chain 2 of 2): as the sequence (P04234 22-105, chain 2 of 2) above, with I5V, N15K, I20V, S32T, D33N, I34N, T64A, S74N, V83L counted along it

B1: UCHT1 (antibody, V domains shown)
VH: EVQLQQSGPELVKPGPSMKISCKASGYSFTGYTMNWVKQSHGKNLEWMGLINPYKGVSTYNQKFKDKATLTVDKSSSTAYMELLSLTSEDSAVYYCARSGYYGDSDWYFDVWGQGTTLTVFS
VL: DIQMTQTTSSLSASLGDRVTISCRASQDIRNYLNWYQQKPDGTVKLLIYYTSRLHSGVPSKFSGSGSGTDYSLTISNLEQEDIATYFCQQGNTLPWTFAGGTKLEIKR
With B1 the Kd (human CD3 (huCD3ed) [1]) was under 4.74 nM and the “t1/2” value (human CD3 (huCD3ed) [1]) was over 810 s.

B2: h2B4-VH-wt VL_TK (antibody, V domains shown)
VH: EVQLVESGGGLVQPGGSLRLSCAASGFTFSDYYMTWVRQAPGKGLEWVAFIRNRARGYTSDHNASVKGRFTISRDNAKNSLYLQMNSLRAEDTAVYYCARDRPSYYVLDYWGQGTTVTVSS
VL: DIVMTQSPDSLAVSLGERATINCKSSQSLFNVRSRKNYLAWYQQKPGQPPKLLISWASTRESGVPDRFSGSGSGTDFTLTISSLQAEDVAVYYCKQSYDLFTFGSGTKLEIK
notes: Anti-CD3; also called h2B4-TK
B2 was tested, and the “T½” value (human CD3 (huCD3ed) [2]) was 49.8 s, the koff (human CD3 (huCD3ed) [2]) was 0.014 s⁻¹ and the kon (human CD3 (huCD3ed) [2]) was 380000 M⁻¹ s⁻¹. It also gave a Kd (human CD3 (huCD3ed) [3]) of 38 nM.

B3: h2B4 (antibody, V domains shown)
VH: EVQLVESGGGLVQPGGSLRLSCAASGFTFSDYYMTWVRQAPGKGLEWVAFIRNRARGYTSDHNASVKGRFTISRDNAKNSLYLQMNSLRAEDTAVYYCARDRPSYYVLDYWGQGTTVTVSS
VL: DIVMTQSPDSLAVSLGERATINCTSSQSLFNVRSRKNYLAWYQQKPGQPPKLLISWASTRESGVPDRFSGSGSGTDFTLTISSLQAEDVAVYYCKQSYDLFTFGSGTKLEIK
notes: Anti-CD3; tested as human IgG immobilised on the chip; also called h2B4-1d
In the case of B3, the Kd (cynomolgus CD3 (cyCD3ed)) is reported as 3.8 nM, the “T½” value (cynomolgus CD3 (cyCD3ed)) is reported as 462 s and the koff (cynomolgus CD3 (cyCD3ed)) is reported as 0.0015 s⁻¹. For the same binder, the kon (cynomolgus CD3 (cyCD3ed)) was 390000 M⁻¹ s⁻¹, the Kd (human CD3 (huCD3ed) [4]) was 5.3 nM and the “T½” value (human CD3 (huCD3ed) [4]) was 348 s. The koff (human CD3 (huCD3ed) [4]) was 0.002 s⁻¹, the kon (human CD3 (huCD3ed) [4]) was 370000 M⁻¹ s⁻¹ and the “T½” value (human CD3 (huCD3ed) [2]) was 50.4 s. For the same binder, the koff (human CD3 (huCD3ed) [2]) was 0.0137 s⁻¹, the kon (human CD3 (huCD3ed) [2]) was 437000 M⁻¹ s⁻¹ and the Kd (human CD3 (huCD3ed) [3]) was 31.4 nM.

B4: h2B4-VH-yaps VL_TK (antibody, V domains shown)
VH: EVQLVESGGGLVQPGGSLRLSCAASGFTFSDYYMTWVRQAPGKGLEWVAFIRNRARGYTSDYAPSVKGRFTISRDNAKNSLYLQMNSLRAEDTAVYYCARDRPSYYVLDYWGQGTTVTVSS
VL: DIVMTQSPDSLAVSLGERATINCKSSQSLFNVRSRKNYLAWYQQKPGQPPKLLISWASTRESGVPDRFSGSGSGTDFTLTISSLQAEDVAVYYCKQSYDLFTFGSGTKLEIK
notes: Anti-CD3
B4 was tested, and the “T½” value (human CD3 (huCD3ed) [2]) was 30 s, the koff (human CD3 (huCD3ed) [2]) was 0.023 s⁻¹ and the kon (human CD3 (huCD3ed) [2]) was 250000 M⁻¹ s⁻¹. For the same binder, the Kd (human CD3 (huCD3ed) [3]) was 92 nM.

B5: h2B4-VH-yads VL_TK (antibody, V domains shown)
VH: EVQLVESGGGLVQPGGSLRLSCAASGFTFSDYYMTWVRQAPGKGLEWVAFIRNRARGYTSDYADSVKGRFTISRDNAKNSLYLQMNSLRAEDTAVYYCARDRPSYYVLDYWGQGTTVTVSS
VL: DIVMTQSPDSLAVSLGERATINCKSSQSLFNVRSRKNYLAWYQQKPGQPPKLLISWASTRESGVPDRFSGSGSGTDFTLTISSLQAEDVAVYYCKQSYDLFTFGSGTKLEIK
notes: Anti-CD3
With B5 the “T½” value (human CD3 (huCD3ed) [2]) was 47.4 s, the koff (human CD3 (huCD3ed) [2]) was 0.021 s⁻¹ and the kon (human CD3 (huCD3ed) [2]) was 240000 M⁻¹ s⁻¹. For the same binder, the Kd (human CD3 (huCD3ed) [3]) was 86 nM.

B6: h2B4-VH-yaes VL_TK (antibody, V domains shown)
VH: EVQLVESGGGLVQPGGSLRLSCAASGFTFSDYYMTWVRQAPGKGLEWVAFIRNRARGYTSDYAESVKGRFTISRDNAKNSLYLQMNSLRAEDTAVYYCARDRPSYYVLDYWGQGTTVTVSS
VL: DIVMTQSPDSLAVSLGERATINCKSSQSLFNVRSRKNYLAWYQQKPGQPPKLLISWASTRESGVPDRFSGSGSGTDFTLTISSLQAEDVAVYYCKQSYDLFTFGSGTKLEIK
notes: Anti-CD3; also called h2B4-yaesTK
With B6 the “T½” value (human CD3 (huCD3ed) [2]) was 30 s, the koff (human CD3 (huCD3ed) [2]) was 0.023 s⁻¹ and the kon (human CD3 (huCD3ed) [2]) was 230000 M⁻¹ s⁻¹. For the same binder, the Kd (human CD3 (huCD3ed) [3]) was 100 nM.

B7: h2B4-VH-hnps VL_TK (antibody, V domains shown)
VH: EVQLVESGGGLVQPGGSLRLSCAASGFTFSDYYMTWVRQAPGKGLEWVAFIRNRARGYTSDHNPSVKGRFTISRDNAKNSLYLQMNSLRAEDTAVYYCARDRPSYYVLDYWGQGTTVTVSS
VL: DIVMTQSPDSLAVSLGERATINCKSSQSLFNVRSRKNYLAWYQQKPGQPPKLLISWASTRESGVPDRFSGSGSGTDFTLTISSLQAEDVAVYYCKQSYDLFTFGSGTKLEIK
notes: Anti-CD3; also called h2B4-hnpsTK
For B7, the “T½” value (human CD3 (huCD3ed) [2]) was 43.2 s, the koff (human CD3 (huCD3ed) [2]) was 0.016 s⁻¹ and the kon (human CD3 (huCD3ed) [2]) was 390000 M⁻¹ s⁻¹. It also gave a Kd (human CD3 (huCD3ed) [3]) of 41 nM.

B8: COMBO_Rd4_0.6nM_C19 (antibody, V domains shown)
VH: EVQLLESGGGLVQPGGSLRLSCAASGFTFSSYPMSWVRQAPGKGLEWVSAIGGSGGSLPYADSVKGRFTISRDNSKNTLYLQMNSLRAEDTAVYYCARYWPMDSWGQGTLVTVSS
VL: EIVLTQSPGTLSLSPGERATLSCRASQSVSAVYLAWYQQKPGQAPRLLMYDASIRATGIPDRFSGSGSGTDFTLTISRLEPEDFAVYYCQQYRAWPLTFGQGTKVEIK
notes: IgG in SPR
In the case of B8, the Kd (human BCMA) is reported as 0.02 nM, the koff (human BCMA) is reported as 0.000155 s⁻¹ and the kon (human BCMA) is reported as 7.86e+06 M⁻¹ s⁻¹.

B9: 1C10 (antibody, mouse IgG1, V domains shown)
VH: QVQLQQPGSELVRPGASVILSCKASGYTFTSYWMHWVRQRPGQGLEWIGNIYSGGDTINYDEKFKNKAILTVDTSSSTAYMHLSSLTSEDSAVYYCTRDATSRYFFDYWGQGTTVTVSS
VL: DIVMSQSPSSLAVSAGEKVTMSCKSSQSLLNSRTRKNYLAWYQQKPGQSPKLLIYWASTRESGVPDRFTGSGSGTDFTLTIDSVQPEDLAVYYCTQSFILRTFGGGTKLEIK
notes: Cloned from immunized mouse, expressed as mouse IgG1; also called anti-CD3 1C10
For B9, the Kd (human CD3 (huCD3ed) [1]) was 8 nM and the “t1/2” value (human CD3 (huCD3ed) [1]) was 293 s.

B10: 2B4 (antibody, mouse IgG1, V domains shown)
VH: EVKLVESGGGLVQPGGSLRLSCATFGFTFTDYYMTWVRQPPGKALEWVAFIRNRARGYTSDHNASVKGRFTISRDNSQNILYLQMNTLRAEDSATYYCARDRPSYYVLDYWGQGTTVTVSS
VL: DIVMSQSPPSLAVSVGDKVTMSCTSSQSLFNSRSRKNYLAWYQQKSGQSPKLLISWASTRESGVPDRFTGSGSGTDFTLTISSVQAEDLAVYYCKQSYDLFTFGSGTKLEIK
notes: Cloned from immunized mouse, expressed as mouse IgG1; also called anti-CD3 2B4
B10 was tested, and the Kd (human CD3 (huCD3ed) [1]) was 7.33 nM and the “t1/2” value (human CD3 (huCD3ed) [1]) was 253 s.
